Data from patent publication US9309303B2, “Complexation of fatty acid-conjugated molecules with albumin” (The University of the Sciences in Philadelphia, priority 2007, dated 2016).
Ends that are not written are not given here. fluorescein = fluorescein conjugated to the primary amine of the Lys side chain through an MHS ester

Experiments:
[1] = solubility of rHSA purified from Pichia pastoris expression system; type: physicochemical
Description: We cloned, expressed and purified this rHSA from a Pichia pastoris yeast rHSA expression system. The protein was soluble and was purified to apparent homogeneity. We confirmed the identity of the purified protein by Western blotting using anti-HSA antibody and anti-c-Myc antibody. The alpha-v-beta-3 integrin binding ability of RGD-HSA was confirmed by co-immunoprecipitation and Western blotting.

HeLa cells [2] = experiment: cellular uptake and/or binding of Rhodamine-labeled rHSAs, fluorescent microscopy; type: cell-based; conditions: 50 pmol labeled rHSA
Method: It has been reported that there is no αvβ3 type of integrin in HeLa cells. Nonetheless, HeLa cells are still able to bind fibronectin. Similar to the cellular uptake experiments for MDA-MB-435S cells, the fluorescent dye labeled rHSAs (50 pmol for rHSA, RGD-rHSA-FN and RGD-rHSA-4C) were added to cultured HeLa cells (with 250 μl EMEM in 24-well plate). Cellular uptake and/or binding was monitored at 1, 4, and 8 hours after washing with fresh non-labeled medium. Cellular uptake and/or binding of albumin was then visualized using fluorescent microscopy.

αvβ3 integrin = target: T1, αvβ3 integrin (Homo sapiens, UniProt P05106+P06756); experiment: αvβ3 integrin-binding assay (co-immunoprecipitation / Ni2+ pull-down, Western blotting); conditions: co-immunoprecipitation and Western blotting
T1 construct: 300 μg MDA-MD-435S (αvβ3 positive) cell extract; endogenous in cells; host or cells: MDA-MB-435S (printed MDA-MD-435S) cell extract
T1 sequence (P06756 31-889 limits assumed): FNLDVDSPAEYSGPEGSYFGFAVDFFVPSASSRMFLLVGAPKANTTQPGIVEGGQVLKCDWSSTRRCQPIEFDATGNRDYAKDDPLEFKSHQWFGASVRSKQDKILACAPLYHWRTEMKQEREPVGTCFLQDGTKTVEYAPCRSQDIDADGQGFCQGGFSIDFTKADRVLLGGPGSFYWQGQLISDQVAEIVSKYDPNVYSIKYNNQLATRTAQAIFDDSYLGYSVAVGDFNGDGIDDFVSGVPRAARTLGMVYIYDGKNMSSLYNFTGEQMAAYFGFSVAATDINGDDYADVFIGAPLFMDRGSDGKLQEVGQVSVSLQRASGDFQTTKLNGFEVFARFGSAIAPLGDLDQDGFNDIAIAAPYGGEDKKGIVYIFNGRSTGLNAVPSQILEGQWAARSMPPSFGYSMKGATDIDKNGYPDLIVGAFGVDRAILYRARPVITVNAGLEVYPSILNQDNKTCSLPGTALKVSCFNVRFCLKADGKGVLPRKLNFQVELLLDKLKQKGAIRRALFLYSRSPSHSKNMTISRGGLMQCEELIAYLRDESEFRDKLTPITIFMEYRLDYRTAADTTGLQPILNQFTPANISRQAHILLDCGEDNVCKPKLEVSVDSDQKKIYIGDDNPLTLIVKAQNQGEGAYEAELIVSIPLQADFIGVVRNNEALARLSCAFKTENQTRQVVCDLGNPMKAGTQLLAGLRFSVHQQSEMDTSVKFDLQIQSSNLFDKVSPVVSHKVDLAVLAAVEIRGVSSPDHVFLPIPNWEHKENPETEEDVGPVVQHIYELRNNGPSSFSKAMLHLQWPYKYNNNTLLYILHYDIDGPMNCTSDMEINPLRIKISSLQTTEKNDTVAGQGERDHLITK
T1 sequence (P06756 891-1048 partner limits assumed): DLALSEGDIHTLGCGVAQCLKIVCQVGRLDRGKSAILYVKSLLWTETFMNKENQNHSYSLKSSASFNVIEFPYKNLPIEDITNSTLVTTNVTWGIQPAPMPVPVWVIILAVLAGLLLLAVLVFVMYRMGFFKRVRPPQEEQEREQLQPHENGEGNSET
T1 sequence (P05106 27-788): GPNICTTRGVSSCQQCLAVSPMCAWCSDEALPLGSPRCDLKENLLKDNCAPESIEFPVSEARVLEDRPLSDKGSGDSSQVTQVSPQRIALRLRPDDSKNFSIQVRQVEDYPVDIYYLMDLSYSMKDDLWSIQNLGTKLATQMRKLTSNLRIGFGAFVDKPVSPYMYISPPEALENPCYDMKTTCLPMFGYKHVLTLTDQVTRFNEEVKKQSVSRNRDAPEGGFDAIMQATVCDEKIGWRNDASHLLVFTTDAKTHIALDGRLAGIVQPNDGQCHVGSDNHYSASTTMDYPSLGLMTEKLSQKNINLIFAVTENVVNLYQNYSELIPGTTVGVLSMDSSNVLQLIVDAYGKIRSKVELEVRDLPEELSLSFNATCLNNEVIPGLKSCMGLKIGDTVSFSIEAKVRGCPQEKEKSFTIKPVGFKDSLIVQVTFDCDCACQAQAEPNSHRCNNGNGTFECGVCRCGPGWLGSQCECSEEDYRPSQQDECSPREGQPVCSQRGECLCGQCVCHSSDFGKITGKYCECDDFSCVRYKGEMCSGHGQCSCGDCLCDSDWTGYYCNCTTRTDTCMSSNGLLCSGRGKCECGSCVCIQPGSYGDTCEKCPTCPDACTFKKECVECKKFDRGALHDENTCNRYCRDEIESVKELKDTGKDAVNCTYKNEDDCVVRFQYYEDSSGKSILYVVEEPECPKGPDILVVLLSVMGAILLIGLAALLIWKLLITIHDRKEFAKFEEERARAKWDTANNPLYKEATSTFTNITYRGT
Method: Lanes 3 and 6 each contained mixture of 300 μg MDA-MD435S cell extract and 1.2 μg of RGD-rHSA (wild type HSA). For the convenience of purification and detection, all rHSAs were fused with c-terminal c-myc and His6 tags. For lane 1, 2, and 3, the αvβ3 complexes were immunoprecipitated with anti-αv antibody (CHEMICON, AB1930). rHSAs associated with αvβ3 were detected by anti-c-myc antibody. […] For lane 4,5, and 6, the poly-HIS-tagged rHSAs were pulled down with Ni2+-charged chelating agarose. αvβ3 Associated with rHSAs was detected by anti-αv antibody (CHEMICON, AB 1930).

[3] = esterase assay, p-nitrophenyl acetate hydrolysis; type: biochemical; conditions: 5 μM p-nitrophenyl acetate, 40 μg protein, pH 7.4, 37° C., 390 nm
Method: The reaction of p-nitrophenyl acetate hydrolysis-mediated by rHSA and RGD-rHSA was assessed spectrophotometrically at 390 nm by monitoring the appearance of p-nitrophenol. The reaction mixtures contained 5 μM p-nitrophenyl acetate and 40 μg protein in 67 mM phosphate buffer (pH 7.4). Reactions were performed at 37° C.

HSA = HSA (Homo sapiens, UniProt P02768); conditions: 25 pmol peptide, 100 pmol defatted HSA, 15 minutes, room temperature
HeLa cells [4] = experiment: transfection of HeLa cells with peptides in the presence of HSA; type: cell-based; conditions: 250 pmol peptide, 250 pmol HSA
Method: Fatty acid-conjugated faTraF peptides and non-conjugated faTraE peptides (250 pmol) were added to separate batches of HeLa cells (24-well plate with 250 μl of EMEM medium). 250 Pmol of HSA was added to the incubation of some wells, but not others. Cells incubated in the presence of HSA and the fatty-acid conjugated peptides were transfected.

αvβ3 integrin binding ability / ability to interact (αvβ3 integrin) | Substance | solubility of purified protein [1] | effect of RGD sequence on albumin uptake and/or binding (HeLa cells [2]) | esterase activity [3] | complex with HSA on gel (HSA) | transfection of HeLa cells (HeLa cells [4])
confirmed | RGD-rHSA-FN: rHSA containing fibronectin RGD sequence (CGRGDSPC) in place of residues 53-62 of HSA | soluble | mildly stimulated | comparable |  | 
 | fatty acid-conjugated faTraF peptide: fluorescein-labeled peptide CHLDAHWKG conjugated at Cys thiol with 16-methanethiosulfonyl hexadecanoic acid: HOOC—(CH2)15—S—S-peptide (not fully specified (residue 1); also: fluorescein-labeled (position not given here)) |  |  |  | clearly observed | transfected
 | unmodified peptides: peptide CHLDAHWKG (SEQ ID NO: 58) conjugated with fluorescein at Lys, without fatty acid (CHLDAHWK(fluorescein)G) [reference compound] |  |  |  |  | can not be observed
